Article PMC9375587

Biological target: Myeloperoxidase (MPO), native, dimeric (human) (UniProt P05164)
Assay: SPR

Kd: 436 nM | koff: 0.503 s⁻¹ | kon: 11500 M⁻¹ s⁻¹
B1: Ceruloplasmin (CP), intact (non-proteolyzed) (natural protein)
chain: KEKHYYIGIIETTWDYASDHGEKKLISVDTEHSNIYLQNGPDRIGRLYKKALYLQYTDETFRTTIEKPVWLGFLGPIIKAETGDKVYVHLKNLASRPYTFHSHGITYYKEHEGAIYPDNTTDFQRADDKVYPGEQYTYMLLATEEQSPGEGDGNCVTRIYHSHIDAPKDIASGLIGPLIICKKDSLDKEKEKHIDREFVVMFSVVDENFSWYLEDNIKTYCSEPEKVDKDNEDFQESNRMYSVNGYTFGSLPGLSMCAEDRVKWYLFGMGNEVDVHAAFFHGQALTNKNYRIDTINLFPATLFDAYMVAQNPGEWMLSCQNLNHLKAGLQAFFQVQECNKSSSKDNIRGKHVRHYYIAAEEIIWNYAPSGIDIFTKENLTAPGSDSAVFFEQGTTRIGGSYKKLVYREYTDASFTNRKERGPEEEHLGILGPVIWAEVGDTIRVTFHNKGAYPLSIEPIGVRFNKNNEGTYYSPNYNPQSRSVPPSASHVAPTETFTYEWTVPKEVGPTNADPVCLAKMYYSAVEPTKDIFTGLIGPMKICKKGSLHANGRQKDVDKEFYLFPTVFDENESLLLEDNIRMFTTAPDQVDKEDEDFQESNKMHSMNGFMYGNQPGLTMCKGDSVVWYLFSAGNEADVHGIYFSGNTYLWRGERRDTANLFPQTSLTLHMWPDTEGTFNVECLTTDHYTGGMKQKYTVNQCRRQSEDSTFYLGERTYYIAAVEVEWDYSPQREWEKELHHLQEQNVSNAFLDKGEFYIGSKYKKVVYRQYTDSTFRVPVERKAEEEHLGILGPQLHADVGDKVKIIFKNMATRPYSIHAHGVQTESSTVTPTLPGETLTYVWKIPERSGAGTEDSACIPWAYYSTVDQVKDLYSGLIGPLIVCRRPYLKVFNPRRKLEFALLFLVFDENESWYLDDNIKTYSDHPEKVNKDDEEFIESNKMHAINGRMFGNLQGLTMHVGDEVNWYLMGMGNEIDLHTVHFHGHSFQYKHRGVYSSDVFDIFPGTYQTLEMFPRTPGIWLLHCHVTDHIHAGMETTYTVLQNEDTKSG
